# Reference: the nanobody polyreactivity screen of Harvey et al. (2022)
# Assay: yeast display, Sf9 membrane polyspecificity reagent, FACS + sequencing; frameworks hold sequencing errors
# Method in brief: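 Polyreactivity labels are assigned by the sorting gate from which each nanobody was recovered. The gates were low and high (top ~1%), set on anti-HA fluorescence for expression and streptavidin fluorescence for reagent binding. Before sorting, galactose-induced (36–48 hours) yeast display cells were stained for 1 hour at 4 °C with 10% biotinylated, detergent-solubilized Sf9 membrane reagent.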
row,Sequence,polyreactivity (PSR sort gate)
1,QVQLVESGGGLVQAGGSLRLSCADSGFIFAYYVMGWYRQAPGKERELVAAISRGGGSTYYADSVKGRFTISRDNAKYTVYLQMNSLKPEDTAVYYCATYSHALRYDYWGQGTQVTVSS,high polyreactivity
2,QVQLVESGGGLVQAGGSLRSSCAASGSIFQYYALGWYRQAPGNERELVAAISSGGRTNYADSVKGRFTISRDNAKNTVYLQMNSLKPEDTAVYYCAAARYYYQVYRWEYDYWGQGTQVTVSS,high polyreactivity
3,QVQLVESGGGLVQAGGSLRLSCAASGSIFSVNSMGWYRPAPGKERELVATIRTGDSTNYADSVKGRFTISRDNAKNTVYLQMNSLKPEDTAVYYCAAEWSSLNFDYWGHGTQVTVSS,low polyreactivity
4,QVQLVESGGGLVQAGGSLRLSCAASGIIFDSYAMGLYRQAPGKERELVAAITSRGGRTYYADSVKRRFTISRENAKNTVYLQMNSLKPEDTAVYYCAARAIYDRRTEGTSGYDYWGPGTQVTVSS,low polyreactivity
5,QVQLVESVGGLVQAGGSLRLSSAASGFTFKYYAMVWYRQAPGKERELVAAISWSGTRTYYADSVKGRVTISRDNAKYTVYLQMNSLKPEDTAVYYCDADFNGRYDYWGQGTQVTVSS,high polyreactivity
6,QVQLVESGGGLVQAGGSLRLSCAASGRILVFYAMGGYRQAPGIERELVAAISKSVRPTYYADSVKGRFTISRDNAQNTVYLQMNSLKPEDTAVYYCNTRSASDLWPQYGYWGQGTQVTVSS,low polyreactivity
7,QVQLVESGGGLVQAGGSLRLSCAASGFIFEWNGMGWYRQAPGKERELVAAITWSGGSTYYADSVKGRFTISRDNAKNTVYLQMISLKPEDTAVYYCAADFPEYYLPYDNWGQGTQVTVSS,low polyreactivity
8,QVQLVESGGGLVQAGGSLRLSCAASGIIFARYAMGWYRQAPGKERELVAAITSGGGTSYADSVKGRFTISRDNAKNTVYLQMNSLKPEDTAVYYCNADGYLAERFVIRLDEYRDYDYWGQGTQVTVSS,low polyreactivity
9,QVQLVESGGGLVQAGGSLRLSCAASGSTFNDNAMGWYRQAPGKERELVAAIRWSGGSTYYADSVKGRFTISRDNAKNTVYLQMNSLKPEDTAVYYCAASRRYYLTYRYYYWGQGTQVTVSS,high polyreactivity
10,QVQLVESGGGLVQAGGSLRLSCAASGFTFGSYVMGWYRQAPGKERELVADISIRGGSTYYADSVKGRFTISRDNSKNTVYLQMNSLKPEDTAVYYCAASYFPFNSGRKVGYWGQGTQVTVSS,low polyreactivity
11,QVQLVESGGGLVQAGGSLRLSCAASGRTFQPYAMGWYRQAPGKERELVAAITSIGGSTFYADSVKGRFTISRDNAKNTVYLQMNSLKPEDTAVYYCARRGYYRSIWERDYWGQGTQVTVSS,low polyreactivity
12,QVQLVESGGGLVQAGGSLRLSCAASGFIFDLYAMGWYRQAPGKERELVAAITTSGGTTYYADSVKGRFTISRDNAKNTVYLQMNSLKPEDTAVYYCAARRYSWYYYWGQGTQVTVSS,high polyreactivity
13,QVQLQESGGGLVQAGGSLRLSCAASGSISSRDAMGWYRQAPGKEREFVATIASGTTTYYADSVKGSFTISRDNAENTLYLQTNSLKPEDTAVYYCAAPTIQIYPFYYWGQGTQVTVSS,high polyreactivity
14,QVQLLDSGGGLVQAGCSLRLSCAASGLIFHRNAMGWYRQAPGKERELVAIISSGGGTTYYADSVKGRFTISRDNAKNTVYLQKNSLKPEDTAVYYCNARPRAYGSRGFDYWGQGTQVTVSS,high polyreactivity
15,QVQLVESGGGLVQAGGSLRLSCAASGNIFVRYAMGWYRQAPGKERELVAAISSSGGRTYYADSVKGRFTISRDNAKNTVYLQMNSLKPEDTAVYYCADAQGNAHRDYWGQGTQVTVSS,high polyreactivity
16,QVQLVDSGGGLVQAGASLRLSCAASGIIFTGYAKGWYRQAPGKERDLVAAISGIGTSTYYADSVKGRFTISRDNAKNTVYLQMNSLKPEDTAVYYCAARYVSRRFLGYYYWGQGTQVTVSS,high polyreactivity
17,QVQLVESGGGLVQAGGSLRLSCAASGFTFTLNAMGWYRQAPGKERELVAGISSGGSTNYADSVKGRFTISRDNAKNTVYLQMNSLKPEDTAVYYCAADRGYVWRYDYWGQGTQVTVSS,low polyreactivity
18,QVQLVESGGGLVQAGGSLRLSCAASGSTFWGNAMGWYRQAPGKERELVAAIDWSGGRTYYADSVKGRFTISRDNAKNTVYLQMNSLKPEDTAVYYCATRAWRGYVPYDYWGQGTQVTVSS,high polyreactivity
19,QVQLVESGGGLVQAGGSLRLSCAASGITFRYYAMGWYRQAPGKERELVAAISSTGGSTYYADSVKGRFTISRDNAKNTVYLQMNSLKPEDTAVYYCNADTTFYGYRTYRPENYWGQGTQVTVSS,high polyreactivity
20,QGQLVESGGGLVQAGGSIRLSCAASGSTTFYAMGWYRQAPGKEWELVATISSSAGSTYYADSVKGRFTISRDNAKNTVYLQMNSLKPEDTAFYYCAKAAYGNSYTSDYWGQGTQVTVSS,low polyreactivity
21,QVQLVESGGGLVQAGGSLRLSCAASGIILHYYAMGWYRQAPGKERELVAAISARGGRTYYADSVKGRFTISRDNAKNTVYLQMNSLKPEDTAVYYCARYLRRSSPSPGYGYWGQGTQVTVSS,high polyreactivity
